Laboratory results: patent publication US20190359687A1 (Bayer, published 2019)

Assays:
[1] = molecular target: T1, purified human glycophorin A protein (Sigma, cat # G5017) (human, UniProt P02724 20-150); assay: ELISA, hGPA
T1 construct: mature; also called Sigma hGPA; Sigma GPA
T1 sequence (looked up): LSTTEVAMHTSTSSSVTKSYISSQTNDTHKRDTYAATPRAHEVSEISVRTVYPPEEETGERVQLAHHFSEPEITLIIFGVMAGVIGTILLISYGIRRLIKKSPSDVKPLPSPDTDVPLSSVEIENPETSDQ
Protocol: (§1) Hybridomas were generated from the spleen cells of these mice and these hybriomas were screened first by fluorescence activated cell sorting (FACS) against isolated human and monkey (Cynomolgus monkey and Rhesus monkey) red blood cells (RBC) and then by ELISA against purified human glycophorin A protein (GPA). Isolated RBC were prepared from whole blood from normal human, cynomolgus monkey, and beagle dog, were anticoagulant with sodium heparin (Bioreclamation). 2-3 mL of whole blood was loaded gently on the top of 3 mL Ficoll Plus (Sigma Aldrich) then centrifuged at 500 g for 20 min at room temperature (RT). The RBC pellets were washed 3 times with 10 mL of PBS, and centrifuge 400 g for 10 min at RT. RBC pellets were re-suspended in PBS at the same total volume as the original blood volume to achieve the same RBC cell density as in whole blood and stored at 4° C. Purified human glycophorin A protein was obtained from Sigma Aldrich and coated on ELISA plates at 2 ug/ml. Binding of antibodies to human GPA was detected using appropriate secondary antibodies using methods well known in the art.

[2] = molecular target: T2, Cynomolgus monkey glycophorin A on Cynomolgus monkey red blood cells (Cynomolgus monkey); assay: FACS, Cyno RBC
T2 construct: whole, on cells; also called Cyno RBC; Cyno GPA
Protocol: as §1

[3] = molecular target: T3, human glycophorin A in the red blood cell membrane (human, UniProt P02724 20-150); assay: FACS, hu RBC
T3 construct: whole, on cells; used for intact RBC, isolated RBC membranes and transfected cells; the assay field tells which; also called GPA; hGPA
T3 sequence (looked up): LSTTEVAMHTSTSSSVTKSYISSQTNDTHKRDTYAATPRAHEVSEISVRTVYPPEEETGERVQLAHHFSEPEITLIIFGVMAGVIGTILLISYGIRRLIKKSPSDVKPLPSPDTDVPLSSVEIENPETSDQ

[4] = molecular target: T4, Cynomolgus monkey glycophorin A on Cynomolgus monkey red blood cells (Cynomolgus monkey); assay: partition to Cyno RBC, human HemA plasma, 1 min;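 note: FVIII fusion spiked at 1 IU/mL into RBC suspension at whole-blood density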
T4 construct: whole, on cells; also called Cyno GPA; Cyno RBC
Protocol: (§2) To evaluate partition to cynomolgus monkey or human red blood cells, whole blood was draw from Cynomolgus monkey or normal human volunteers in to anticoagulant with 4% sodium citrate (Sigma, St Louis, Mo.). The red blood cells were purified by layering the whole blood on to ficoll followed by low speed centrifugation. The supernatant containing plasma, platelets and white blood cells was discarded and the red blood cell pellet was resuspended in 10 pellet volumes of PBS (50 mM Phosphate buffer, pH7.4, 150 mM NaCl). The red blood cells were then pelleted by slow speed centrifugation and the red blood cells re-suspended in 10 volumes of PBS. This washing step was repeated 4 more times and the red blood cells finally resuspended in a volume of plasma from Hemophilia patients with less than 1% of normal levels of FVIII (GeorgeKing Bio-Medical, Overland Park, Kans.) to generate a total volume equal to the initial blood volume such that the RBC density was equal to that of normal whole blood. BDD and RBC targeted FVIII molecules were then spiked into RBC suspension in HemA plasma at 1 IU/mL, and incubated at room temperature for 2-3 hours with gentle rotation. […] An additional control was performed in which BDD or RBC targeted FVIII molecules were added at 11U/ml into the same human hemophilia A plasma and incubated for 5 minutes and 180 mins. These samples were used to determine the input FVIII activity in the presence of plasma which was used to calculate the percentage of the molecule that was bound to RBC. All plasma samples were then assayed together for FVIII activity using the Coatest SP assay (DiaPharma, Columbus, Ohio). The assay was performed following the manufacturer's instructions in a 96-well plate format. […] The plate was incubated at 37° C. for 10 minutes with shaking between each reagent addition.

[5] = molecular target: T4, Cynomolgus monkey glycophorin A on …; assay: partition to Cyno RBC, human HemA plasma, 60 min;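 note: FVIII fusion spiked at 1 IU/mL into RBC suspension at whole-blood density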
[6] = molecular target: T5, human glycophorin A on human red blood cells (human, UniProt P02724 20-150); assay: partition to human RBC, vWF deficient plasma, 5 min
T5 construct: whole, on cells; also called human GPA; huGPA
T5 sequence (looked up): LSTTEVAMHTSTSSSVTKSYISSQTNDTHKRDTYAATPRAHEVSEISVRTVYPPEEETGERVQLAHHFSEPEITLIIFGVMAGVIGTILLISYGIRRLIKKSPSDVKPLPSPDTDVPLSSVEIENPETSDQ

[7] = molecular target: T5, human glycophorin A on human red blood …; assay: partition to human RBC, vWF deficient plasma, 60 min
[8] = molecular target: T4, Cynomolgus monkey glycophorin A on …; assay: partition to Cyno RBC, human HemA plasma, 5 min;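 note: FVIII fusion spiked at 1 IU/mL into RBC suspension at whole-blood density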
[9] = molecular target: T5, human glycophorin A on human red blood …; assay: partition to human RBC, vWF deficient plasma, 15 min
[10] = molecular target: T4, Cynomolgus monkey glycophorin A on …; assay: partition to Cyno RBC, human HemA plasma, 120 min;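 note: FVIII fusion spiked at 1 IU/mL into RBC suspension at whole-blood density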
[11] = molecular target: T4, Cynomolgus monkey glycophorin A on …; assay: partition to Cyno RBC, human HemA plasma, 15 min;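 note: FVIII fusion spiked at 1 IU/mL into RBC suspension at whole-blood density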
Protocol: as §2

[12] = molecular target: T4, Cynomolgus monkey glycophorin A on …; assay: partition to Cyno RBC, human HemA plasma, 30 min;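 note: FVIII fusion spiked at 1 IU/mL into RBC suspension at whole-blood density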
[13] = molecular target: T6, glycophorin A peptide GP5 (human, biotin at the N-terminus); assay: Octet, GP5 peptide on the probe, fusion protein in solution, 1:1 fit
T6 construct: Residues 42 to 61 of the human glycophorin A extracellular domain
T6 peptide: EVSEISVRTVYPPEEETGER

[14] = molecular target: T5, human glycophorin A on human red blood …; assay: partition to human RBC, vWF deficient plasma, 120 min
[15] = molecular target: T5, human glycophorin A on human red blood …; assay: partition to human RBC, vWF deficient plasma, 30 min
[16] = molecular target: T5, human glycophorin A on human red blood …; assay: partition to human RBC, vWF deficient plasma, 1 min
[17] = molecular target: T3, human glycophorin A in the red blood …; assay: FACS, Human RBC
[18] = molecular target: T2, Cynomolgus monkey glycophorin A on …; assay: FACS, Cyno #3 RBC
dog red blood cells [19] = molecular target: T7, dog red blood cells (dog); assay: FACS, Dog RBC
T7 construct: also called dog RBC

[20] = molecular target: T2, Cynomolgus monkey glycophorin A on …; assay: FACS, Cyno #2 RBC
[21] = molecular target: T2, Cynomolgus monkey glycophorin A on …; assay: FACS, Cyno #1 RBC
dog red blood cells [22] = molecular target: T7, dog red blood cells; assay: FACS, dog RBC
Protocol: as §1

B1: 1H5B4/H12 (antibody, V domains shown)
VH: QVQLQQSGAELARPGASVKMSCKASGYTFTSYSIHWIKQRPGQSLEWIGYINPNSDYANYNQKFKDKATLTTDKSSTTAYMQLSSLTTDDSAVYYCQTGTRDYWGQGTTLTVSS
VL: DIVMTQSPSSLSVSAGEKVTMSCKSSQSLLNSGNQKNYLAWYQQKPGQPPKLLIYGASTRESGVPDRFTGSGSGTDFTLTISSVQAEDLAVYYCQNDHSYPYTFGGGTKLEIK
notes: as m8
EC50 [1]: 0.403 nM
FACS signal [2]: 0.93 relative flourescence units
FACS signal [3]: 1.05 relative flourescence units

B2: TPP-9049 FVIII-scFv fusion protein (other)
chain: ATRRYYLGAVELSWDYMQSDLGELPVDARFPPRVPKSFPFNTSVVYKKTLFVEFTDHLFNIAKPRPPWMGLLGPTIQAEVYDTVVITLKNMASHPVSLHAVGVSYWKASEGAEYDDQTSQREKEDDKVFPGGSHTYVWQVLKENGPMASDPLCLTYSYLSHVDLVKDLNSGLIGALLVCREGSLAKEKTQTLHKFILLFAVFDEGKSWHSETKNSLMQDRDAASARAWPKMHTVNGYVNRSLPGLIGCHRKSVYWHVIGMGTTPEVHSIFLEGHTFLVRNHRQASLEISPITFLTAQTLLMDLGQFLLFCHISSHQHDGMEAYVKVDSCPEEPQLRMKNNEEAEDYDDDLTDSEMDVVRFDDDNSPSFIQIRSVAKKHPKTWVHYIAAEEEDWDYAPLVLAPDDRSYKSQYLNNGPQRIGRKYKKVRFMAYTDETFKTREAIQHESGILGPLLYGEVGDTLLIIFKNQASRPYNIYPHGITDVRPLYSRRLPKGVKHLKDFPILPGEIFKYKWTVTVEDGPTKSDPRCLTRYYSSFVNMERDLASGLIGPLLICYKESVDQRGNQIMSDKRNVILFSVFDENRSWYLTENIQRFLPNPAGVQLEDPEFQASNIMHSINGYVFDSLQLSVCLHEVAYWYILSIGAQTDFLSVFFSGYTFKHKMVYEDTLTLFPFSGETVFMSMENPGLWILGCHNSDFRNRGMTALLKVSSCDKNTGDYYEDSYEDISAYLLSKNNAIEPRSFSQNPPVLKRHQREITRTTLQSDQEEIDYDDTISVEMKKEDFDIYDEDENQSPRSFQKKTRHYFIAAVERLWDYGMSSSPHVLRNRAQSGSVPQFKKVVFQEFTDGSFTQPLYRGELNEHLGLLGPYIRAEVEDNIMVTFRNQASRPYSFYSSLISYEEDQRQGAEPRKNFVKPNETKTYFWKVQHHMAPTKDEFDCKAWAYFSDVDLEKDVHSGLIGPLLVCHTNTLNPAHGRQVTVQEFALFFTIFDETKSWYFTENMERNCRAPCNIQMEDPTFKENYRFHAINGYIMDTLPGLVMAQDQRIRWYLLSMGSNENIHSIHFSGHVFTVRKKEEYKMALYNLYPGVFETVEMLPSKAGIWRVECLIGEHLHAGMSTLFLVYSNKCQTPLGMASGHIRDFQITASGQYGQWAPKLARLHYSGSINAWSTKEPFSWIKVDLLAPMIIHGIKTQGARQKFSSLYISQFIIMYSLDGKKWQTYRGNSTGTLMVFFGNVDSSGIKHNIFNPPIIARYIRLHPTHYSIRSTLRMELMGCDLNSCSMPLGMESKAISDAQITASSYFTNMFATWSPSKARLHLQGRSNAWRPQVNNPKEWLQVDFQKTMKVTGVTTQGVKSLLTSMYVKEFLISSSQDGHQWTLFFQNGKVKVFQGNQDSFTPVVNSLDPPLLTRYLRIHPQSWVHQIALRMEVLGCEAQDLYGGGSGGGGSGLVPRGSGGGSGGGGSGDIQLTQSPSFLSASVGDRVTITCRASSSVRYIYWFQQKPGKAPKLLIYATSFRQSGVPSRFSGSGSGTEYTLTISSLQPEDFATYYCHQRNSFPYTFGQGTKLEIKGGGGSGGGGSGGGGSGGGGSEVQLVQSGAEVKKPGASVKVSCKASGYTFTTYAIHWVRQAPGQGLEWMGYINPSSGYTRYNPKFKGRVTMTRDKSTSTAYMELRSLRSDDTAVYYCWTGTRDYWGQGTTVTVSS
notes: The entry is the mature protein; mostly a 2 chain molecule; also called BDD-C scFv; PPB 6733
% bound to Cyno RBC [4]: 28.1%
% bound to Cyno RBC [5]: 72.2%
percentage bound to human RBC [6]: 48.5%
percentage bound to human RBC [7]: 77.8%
% bound to Cyno RBC [8]: 48.2%
percentage bound to human RBC [9]: 64.8%
% bound to Cyno RBC [10]: 73.8%
% bound to Cyno RBC [11]: 62.1%
% bound to Cyno RBC [12]: 67.5%
Kd [13]: 2.4 nM
koff [13]: 0.00305 s⁻¹
kon [13]: 1.27e+06 M⁻¹ s⁻¹
percentage bound to human RBC [14]: 80.3%
percentage bound to human RBC [15]: 72.5%
percentage bound to human RBC [16]: 24.6%

B3: 1E4 scFv-Fc (Fc fusion)
scFv: QVQLQQSGAELARPGASVKMSCKASGYTFTRYSMHWVKQRPGQGLEWIGYINPGTYYTNYNQKFKDRATLTADKSSSTAYMQLNSLTSEDSAVYYCQTGTRDYWGQGTTLTVSSGGGGSGGGGSGGGGSQIVLTQSPPIMSASPGEKVTITCSAASSVSYIYWFQQKPGTSPKLWIYSTSSLPSGVPTRFSGSGSGTSYSLTISRMEAEDAATYYCHQRSSYPFTFGSGTKLEIRGGGGAGGGGCKPCICTVPEVSSVFIFPPKPKDVLTITLTPKVTCVVVDISKDDPEVQFSWFVDDVEVHTAQTQPREEQFNSTFRSVSELPIMHQDWLNGKEFKCRVNSAAFPAPIEKTISKTKGRPKAPQVYTIPPPKEQMAKDKVSLTCMITDFFPEDITVEWQWNGQPAENYKNTQPIMDTDGSYFVYSKLNVQKSNWEAGNTFTCSVLHEGLHNHHTEKSLSHSPGK
notes: as m18
FACS signal [17]: 1720 Flourescent units
FACS signal [18]: 487 Flourescent units
FACS signal (dog red blood cells [19]): 1 Flourescent units
FACS signal [20]: 453 Flourescent units
FACS signal [21]: 1 Flourescent units

B4: 12C6A6/A5 (antibody, V domains shown)
VH: QVQLQQSGAELARPGASVKMSCKASGYTFTRYSMHWVKQRPGQGLEWIGYINPGTYSTNYNQKFKDRATLTADKSSSTAYMQLNSLTSEDSAVYYCQTGTRDYWGQGTTLTVSS
VL: QIVLTQSPPIMSASPGEKVTITCSAASSVSYIYWFQQKPGTSPKLWIYSTSSLPSGVPTRFSGSGSGTSYSLTISRMEAEDAATYYCHQRSSYPFTFGSGTKLEIR
notes: as m8
EC50 [1]: 0.266 nM
FACS signal [2]: 7 relative flourescence units
FACS signal (dog red blood cells [22]): 0.96 relative flourescence units
FACS signal [3]: 2840 relative flourescence units

B5: 8F9E9/F11 (antibody, V domains shown)
VH: QVQLQQSGAELARPGASVKMSCKASGYTFTSYSIHWIKQRPGQSLEWIGYINPNSDYANYNQKFKDKATLTTDKSSTTAYMQLSSLTTDDSAVYYCQTGTRDYWGQGTTLTVSS
VL: HIVLTQSPAIMSASPGEKVTIICSARSSVSYMYWFQQKPGTSPKLWIYATSSLPSGVPARFSGSGSGTSYSLTISRMEAEDAATYYCHQRSSYPYTFGSGTKLEIK
notes: as m8
EC50 [1]: 0.159 nM
FACS signal [2]: 284 relative flourescence units
FACS signal (dog red blood cells [22]): 1.05 relative flourescence units
FACS signal [3]: 2860 relative flourescence units

B6: 10F1B10/F3 (antibody, V domains shown)
VH: QVQLLQSGAELARPGASVRISCKASGYTFTRYAMHWVKQRPGQGLEWIGYINPGTFSTNYNQKFKDRATLTADKSSSTAYMQLNSLTSEDSAVYYCQTGTRDYWGQGTTLTVSS
VL: QIVLTQSPPIMSASPGEKVTITCSAASSVSYIYWFQQKPGTSPKLWIYSTSSLPSGVPTRFSGSGSGTSYSLTISRMEAEDAATYYCHQRSSYPFTFGSGTKLEIR
notes: as m8
EC50 [1]: 0.192 nM
FACS signal [2]: 280 relative flourescence units
FACS signal (dog red blood cells [22]): 1.04 relative flourescence units
FACS signal [3]: 2860 relative flourescence units

B7: 1E4A2/F8 (antibody, V domains shown)
VH: QVQLQQSGAELARPGASVKMSCKASGYTFTRYSMHWVKQRPGQGLEWIGYINPGTYYTNYNQKFKDRATLTADKSSSTAYMQLNSLTSEDSAVYYCQTGTRDYWGQGTTLTVSS
VL: QIVLTQSPPIMSASPGEKVTITCSAASSVSYIYWFQQKPGTSPKLWIYSTSSLPSGVPTRFSGSGSGTSYSLTISRMEAEDAATYYCHQRSSYPFTFGSGTKLEIR
notes: as m8
EC50 [1]: 0.221 nM
FACS signal [2]: 272 relative flourescence units
FACS signal (dog red blood cells [22]): 1 relative flourescence units
FACS signal [3]: 2560 relative flourescence units
